± gives the uncertainty stated by the source.
Test: protein stability index of a GFP-peptide fusion (yeast GPS) (PSI 1-4); higher = more stable; sorted into four equal gates, so the index is relative within each strain
Outline: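 Plasmids isolated from each sorting gate were PCR-amplified and Illumina-sequenced, and barcodes assigned the reads to strains. The gates, four of equal size, were set by GFP/Cherry fluorescence ratio on mid-log cultures in leucine-free medium. These cultures were yeast carrying a pooled library of tiled 17-residue yeast protein peptides fused downstream of GFP on a plasmid that also expresses Cherry. The protein stability index is the sum of every gate's read frequency times its gate number.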

Sequence	protein stability index (doa10∆)	protein stability index (pdr5∆)	protein stability index (san1∆)	protein stability index (ubr1∆)
LNDTTEKSKALESEIAS [SMC2]	3.53 ± 0.19	3.34 ± 0.14	3.43 ± 0.086	3.18 ± 0.086
LNDVVSFLFSAIPLQQV [SWI1]	1.83 ± 0.044	2.08 ± 0.039	1.94 ± 0.057	1.75 ± 0.026
LNECLKTIQINNEKVVQ [YML031W/NDC1]	1.96 ± 0.12	2.27 ± 0.073	1.29 ± 0.16	1.11 ± 0.1
LNEKFQELRKKVNPNIM [SMC2]	–	2.61 ± 0.27	2.98 ± 0.2	2.81 ± 0.15
LNELETLIKKKQDEKKS [SMC2]	3.24 ± 0.087	3.27 ± 0.092	3.19 ± 0.063	2.91 ± 0.055
LNELHPTLPTNHNKTKL [PRP8]	2.88 ± 0.064	3.08 ± 0.062	2.84 ± 0.056	2.72 ± 0.039
LNESRSQHKKILEELDF [SMC3]	3.38 ± 0.12	3.26 ± 0.098	3.01 ± 0.069	3.06 ± 0.082
LNITTVFSHAQTAVTCE [RPS27A]	2.38 ± 0.043	2.21 ± 0.047	2.08 ± 0.063	2.09 ± 0.052
LNLEQVTLNKYCSGNIY [YJL039C/NUP192]	2.37 ± 0.044	2.16 ± 0.048	2.59 ± 0.052	2.39 ± 0.046
LNLTGPKVPEDIYKSHL [RPN1]	2.9 ± 0.15	3.11 ± 0.11	2.85 ± 0.1	2.9 ± 0.26
LNRFNFQNTNTRSALKL [QCR2]	2.71 ± 0.076	2.91 ± 0.069	2.83 ± 0.075	2.62 ± 0.074
LNRSHFATTKAECISLI [ECM29]	1.51 ± 0.061	2 ± 0.051	1.69 ± 0.092	1.66 ± 0.038
LNSFAFELCSLGDKELW [YJR042W/NUP85]	1.76 ± 0.22	1.32 ± 0.12	–	1.34 ± 0.092
LNSYWVNQDSTYKYFEV [RPL15A]	3.23 ± 0.061	3.27 ± 0.076	3.32 ± 0.041	3.2 ± 0.058
LNTLLVTSADSNLKISL [SWI1]	2.71 ± 0.078	2.9 ± 0.065	2.89 ± 0.054	2.52 ± 0.08
LNVQVWHIEETGEWFSS [ITC1]	1.83 ± 0.051	2.03 ± 0.05	2.39 ± 0.059	2.41 ± 0.043
LPDEKSDAMSIDEEDKD [YCG1]	3.04 ± 0.17	2.36 ± 0.11	2.94 ± 0.12	3.06 ± 0.074
LPILPIQRLRLLREKQR [YOR098C/NUP1]	2.09 ± 0.086	1.55 ± 0.062	1.17 ± 0.25	2.02 ± 0.097
LPKFLTVQYVRFFWKRS [UBP6]	1.62 ± 0.04	1.35 ± 0.035	1.24 ± 0.085	1.19 ± 0.032
LPKVRIRTRRAAELLDK [DIS3]	1.78 ± 0.096	1.48 ± 0.088	1.3 ± 0.17	1.28 ± 0.072
LPKYQTIQYDPPETKLP [SNF5]	3.03 ± 0.052	2.96 ± 0.046	2.92 ± 0.04	3.01 ± 0.039
LPNEMSQNDGFVIIRGS [RPO31]	3.07 ± 0.19	3.13 ± 0.16	3.23 ± 0.18	–
LPNIYPSTRCKLKLLRM [RPT2]	1.33 ± 0.037	1.43 ± 0.049	1.37 ± 0.076	1.59 ± 0.048
LPNQFPLKIHRTPYLTS [SWI1]	2.07 ± 0.042	1.72 ± 0.045	1.65 ± 0.074	1.72 ± 0.038
LPSDRCSKAMGDLASLV [RPP1]	–	–	3.15 ± 0.12	–
LPSGVLSRGDDEVTIRR [SMC3]	3.44 ± 0.083	3.25 ± 0.12	3.2 ± 0.069	3.27 ± 0.068
LPVMESLDSCTAAFTAM [YJR042W/NUP85]	2.65 ± 0.085	2.37 ± 0.066	2.54 ± 0.071	2.37 ± 0.071

Sequence	protein stability index (doa10∆)	protein stability index (pdr5∆)	protein stability index (san1∆)	protein stability index (ubr1∆)
LQDELKELQLEKESVEK [SMC3]	3.66 ± 0.13	3.25 ± 0.21	2.7 ± 0.26	–
LQETLNKSTSSEAEYSK [YIL149C/MLP2]	3.11 ± 0.08	2.9 ± 0.081	3.27 ± 0.062	3.28 ± 0.068
LQFKSIREIDVAGGKKA [RPS7A]	1.45 ± 0.14	1.49 ± 0.11	–	1.21 ± 0.077
LQGISTLRPRQYATVSK [RPL34A]	2.59 ± 0.13	2.75 ± 0.13	–	–
LQKKVASILLALTQMDQ [RPB3]	2.88 ± 0.15	2.9 ± 0.14	2.16 ± 0.15	2.62 ± 0.066
LQQKQRDLILKKGEYAR [SMC3]	2.3 ± 0.12	2.42 ± 0.14	2.5 ± 0.29	2.71 ± 0.072
LQRASSKMGAPWCVKPE [ITC1]	3.14 ± 0.089	3.29 ± 0.078	3.33 ± 0.055	3.27 ± 0.066
LQRKDYTSIVQCCEFMT [YML103C/NUP188]	1.48 ± 0.059	1.62 ± 0.048	2.05 ± 0.079	1.9 ± 0.044
LQSNSKLASTLEKISSS [SMC4]	2.79 ± 0.04	2.52 ± 0.035	2.54 ± 0.037	2.53 ± 0.034
LQYTALTGSPNNPLVQK [ARP7]	2.66 ± 0.07	2.7 ± 0.064	2.34 ± 0.078	2.95 ± 0.045
LRKSELEYYAMLSKTKV [RPL30]	2.62 ± 0.075	3.01 ± 0.078	2.17 ± 0.07	2.82 ± 0.068
LRLLEVTDDDRLWLKKV [POP8]	1.36 ± 0.061	1.68 ± 0.072	1.35 ± 0.095	1.61 ± 0.071
LRNYLTPNVREEKQKSY [PUP1]	3.41 ± 0.21	2.88 ± 0.15	3.39 ± 0.085	3.27 ± 0.16
LRRVNARYVIATSTKVS [RPL6A]	1.45 ± 0.058	1.34 ± 0.047	1.25 ± 0.095	1.14 ± 0.035
LRSRSFKSTESNISDEK [YMR129W/POM152]	–	–	2.88 ± 0.27	–
LRWFELKPKLYYEQFRP [SIR3]	3.21 ± 0.074	2.98 ± 0.067	2.71 ± 0.077	3 ± 0.047
LSAPLSKELRAQYGIKA [RPL26A]	2.91 ± 0.14	2.31 ± 0.12	3.48 ± 0.12	1.87 ± 0.15
LSCEKITHYAVRGGNIE [RRI1]	2.37 ± 0.062	2.3 ± 0.078	2.51 ± 0.08	2.19 ± 0.047
LSDYNIQKESTLHLVLR [RPS31]	2.78 ± 0.08	2.72 ± 0.051	2.23 ± 0.065	2.58 ± 0.058
LSEEKEVIFTDVLKSQA [MCD1]	2.92 ± 0.2	3.09 ± 0.23	3.13 ± 0.12	2.77 ± 0.17
LSFSWAILLIINLTQTY [NUT1]	1.5 ± 0.088	1.96 ± 0.069	2.24 ± 0.097	2.06 ± 0.041
LSGGQKTVCAIALILAI [SMC3]	–	1.94 ± 0.19	–	2.74 ± 0.12
LSIAIVGKDTPFTIYDG [PRE5]	2.87 ± 0.066	2.94 ± 0.054	2.78 ± 0.08	3.07 ± 0.047
LSIRLTNQLKSLKGLQS [RPN8]	1.48 ± 0.17	1.49 ± 0.16	2.62 ± 0.19	1.24 ± 0.079
LSISVPSDVNIDVMKSQ [SNU114]	2.86 ± 0.057	2.84 ± 0.057	2.57 ± 0.053	2.78 ± 0.044
LSKINAIQLDYSTANEY [RPN3]	3.13 ± 0.084	2.15 ± 0.066	3.17 ± 0.085	3.06 ± 0.062
LSKMENVNLDDYPDDSG [NAS6]	2.75 ± 0.11	3.02 ± 0.11	2.83 ± 0.088	3.05 ± 0.091

— the supplement of paper PMC9732359
